According to patent US20210171613A1 (NATIONAL RESEARCH COUNCIL OF CANADA, published 2021):

What was measured:
[1] = molecular target: T1, Clostridium difficile toxin A (TcdA) (Clostridium difficile, UniProt P16154 1-2710); assay: cell-based or functional assay
[2] = molecular target: T1, Clostridium difficile toxin A (TcdA); assay: SPR (Biacore 3000), VHH over immobilized TcdA; binding free energy difference relative to parent VHH
Procedure: (§1) Before surface plasmon resonance (SPR) binding experiments, IMAC-purified VHHs were subjected to de-salting and further purification by size-exclusion chromatography (SEC). Approximately 500 μg of each VHH was injected over a Superdex 75 Increase 10/300 GL SEC column (GE Healthcare) in Biacore running buffer HBS-EP (10 mM HEPES pH 7.4, 150 mM NaCl, 3 mM EDTA, 0.005% (v/v) P20; GE Healthcare) under the control of an ÄKTA FPLC at 0.8 mL/min. Monomeric VHH fractions were collected and analyzed for binding to TcdA using a Biacore 3000 SPR instrument (GE Healthcare). Approximately 4,500 resonance units (RUs) of TcdA (List Biological Laboratories, Campbell, Calif.) were immobilized on a CM5 sensor chip (GE Healthcare) using the conditions previously described (Hussack et al, 2011). HBS-EP running buffer was used for all binding studies and regeneration of TcdA surfaces. Next, various dilution ranges of VHHs (as low as 10 nM-0.5 nM to as high as 5 μM-50 nM) were injected over immobilized TcdA at a flow rate of 40 μL/min with 120 s contact time and 600 s dissociation. Reference-subtracted sensorgrams were analyzed with BIAevaluation software (GE Healthcare) and fit to a 1:1 binding model. In cases where rapid kₒₙ and koff rate constants were observed, equilibrium dissociation constants (KDs) were determined by steady-state analysis.

[3] = molecular target: T1, Clostridium difficile toxin A (TcdA); assay: SPR on immobilized TcdA
Procedure: as §1
The location of these mutations relative to the antigen epitope is illustrated in FIG. 2C.

[4] = molecular target: T1, Clostridium difficile toxin A (TcdA); assay: SPR (Biacore 3000), VHH over immobilized TcdA; ratio of parent KD to mutant KD
Procedure: as §1

[5] = molecular target: T1, Clostridium difficile toxin A (TcdA); assay: SPR (Biacore 3000), VHH over immobilized TcdA, steady-state analysis
Procedure: as §1

[6] = molecular target: T1, Clostridium difficile toxin A (TcdA); assay: SPR (Biacore 3000), VHH over immobilized TcdA, 1:1 fit
Procedure: as §1

T1 sequence (P16154 whole entry): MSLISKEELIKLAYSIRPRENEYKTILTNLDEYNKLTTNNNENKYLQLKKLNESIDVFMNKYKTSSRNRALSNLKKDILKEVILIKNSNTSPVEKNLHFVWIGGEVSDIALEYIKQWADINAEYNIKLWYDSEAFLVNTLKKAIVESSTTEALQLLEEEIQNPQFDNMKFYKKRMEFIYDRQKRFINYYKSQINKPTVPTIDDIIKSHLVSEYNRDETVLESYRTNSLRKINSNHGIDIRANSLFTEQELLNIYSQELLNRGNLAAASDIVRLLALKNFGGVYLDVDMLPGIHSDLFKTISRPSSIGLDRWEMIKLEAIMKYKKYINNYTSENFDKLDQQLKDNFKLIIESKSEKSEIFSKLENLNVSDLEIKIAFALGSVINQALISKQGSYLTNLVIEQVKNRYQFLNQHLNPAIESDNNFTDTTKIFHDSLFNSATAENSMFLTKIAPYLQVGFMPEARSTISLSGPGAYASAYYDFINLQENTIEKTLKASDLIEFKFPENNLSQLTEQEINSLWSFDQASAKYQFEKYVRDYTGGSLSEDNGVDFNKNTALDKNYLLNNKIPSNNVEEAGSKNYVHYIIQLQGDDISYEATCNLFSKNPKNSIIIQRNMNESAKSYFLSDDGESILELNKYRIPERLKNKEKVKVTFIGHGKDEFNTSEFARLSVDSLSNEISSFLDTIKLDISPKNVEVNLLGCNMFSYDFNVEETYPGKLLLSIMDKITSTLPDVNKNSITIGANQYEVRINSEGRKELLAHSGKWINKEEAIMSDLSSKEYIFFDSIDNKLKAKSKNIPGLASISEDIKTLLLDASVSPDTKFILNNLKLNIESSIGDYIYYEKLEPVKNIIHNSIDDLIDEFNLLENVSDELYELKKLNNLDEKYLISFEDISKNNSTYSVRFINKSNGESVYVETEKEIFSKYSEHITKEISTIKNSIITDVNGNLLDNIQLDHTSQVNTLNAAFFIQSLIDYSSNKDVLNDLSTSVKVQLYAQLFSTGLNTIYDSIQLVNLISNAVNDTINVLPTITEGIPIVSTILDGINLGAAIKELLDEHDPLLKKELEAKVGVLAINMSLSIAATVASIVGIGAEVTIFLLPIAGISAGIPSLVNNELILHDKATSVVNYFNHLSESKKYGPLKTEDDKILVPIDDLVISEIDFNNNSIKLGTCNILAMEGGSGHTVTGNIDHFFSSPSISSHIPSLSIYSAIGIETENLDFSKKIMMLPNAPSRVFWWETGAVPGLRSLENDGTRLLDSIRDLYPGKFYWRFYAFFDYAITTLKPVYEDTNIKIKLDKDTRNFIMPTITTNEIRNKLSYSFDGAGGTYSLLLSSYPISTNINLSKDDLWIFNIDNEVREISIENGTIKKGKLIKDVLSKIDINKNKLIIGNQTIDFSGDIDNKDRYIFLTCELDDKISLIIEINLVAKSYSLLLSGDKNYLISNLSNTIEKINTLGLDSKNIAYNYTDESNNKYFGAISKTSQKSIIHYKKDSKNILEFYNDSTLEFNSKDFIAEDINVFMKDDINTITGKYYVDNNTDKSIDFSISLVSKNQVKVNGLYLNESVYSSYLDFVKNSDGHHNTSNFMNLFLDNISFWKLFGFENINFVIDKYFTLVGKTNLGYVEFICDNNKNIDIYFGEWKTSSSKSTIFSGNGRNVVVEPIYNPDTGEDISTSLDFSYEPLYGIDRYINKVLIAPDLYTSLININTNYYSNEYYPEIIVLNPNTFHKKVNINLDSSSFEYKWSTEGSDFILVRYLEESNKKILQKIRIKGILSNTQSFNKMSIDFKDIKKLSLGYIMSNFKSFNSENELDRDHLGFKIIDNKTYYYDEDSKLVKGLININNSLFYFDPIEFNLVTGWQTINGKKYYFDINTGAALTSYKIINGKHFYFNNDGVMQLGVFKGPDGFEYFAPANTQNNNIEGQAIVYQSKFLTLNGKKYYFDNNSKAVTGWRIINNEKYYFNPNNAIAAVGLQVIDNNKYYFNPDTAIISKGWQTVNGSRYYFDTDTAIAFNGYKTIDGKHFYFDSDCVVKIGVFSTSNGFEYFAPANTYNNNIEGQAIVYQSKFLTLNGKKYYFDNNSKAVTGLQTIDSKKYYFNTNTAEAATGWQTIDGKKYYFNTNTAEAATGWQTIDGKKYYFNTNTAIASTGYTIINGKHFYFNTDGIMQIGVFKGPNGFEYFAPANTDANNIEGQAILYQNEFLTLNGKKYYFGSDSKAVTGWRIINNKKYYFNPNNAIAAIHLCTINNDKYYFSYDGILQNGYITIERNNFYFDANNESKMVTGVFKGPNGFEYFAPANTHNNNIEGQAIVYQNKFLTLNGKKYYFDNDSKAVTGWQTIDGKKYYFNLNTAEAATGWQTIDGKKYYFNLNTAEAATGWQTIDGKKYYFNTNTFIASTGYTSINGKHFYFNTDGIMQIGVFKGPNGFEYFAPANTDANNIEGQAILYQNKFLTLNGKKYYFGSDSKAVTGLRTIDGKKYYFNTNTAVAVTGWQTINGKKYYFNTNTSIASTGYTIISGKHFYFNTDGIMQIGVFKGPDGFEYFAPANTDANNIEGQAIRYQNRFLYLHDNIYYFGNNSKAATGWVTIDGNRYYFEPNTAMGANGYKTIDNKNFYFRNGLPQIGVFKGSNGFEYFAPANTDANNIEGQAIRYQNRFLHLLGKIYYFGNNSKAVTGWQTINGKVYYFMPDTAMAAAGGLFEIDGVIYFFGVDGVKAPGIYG

| Binder | ΔΔG [2] [kcal/mol] | KD^WT/KD [4] | Kd [5] [nM] | fold improvement in KD relative to parent A26.8 VHH [3] [fold] | fold improvement in binding affinity relative to parent A26.8 VHH [3] [fold] | Kd [6] [nM] | koff [6] [s⁻¹] | kon [6] [M⁻¹ s⁻¹] | also measured |
| --- | --- | --- | --- | --- | --- | --- | --- | --- | --- |
| Parent A26.8 VHH (VHH, not shown: small tags and cut ends) VHH: QVKLEESGGGLVQAGGSLRLSCAASERTFSRYPVAWFRQAPGAEREFVAVISSTGTSTYYADSVKGRFTISRDNAKVTVYLQMNNLKREDTAVYFCAVNSQRTRLQDPNEYDYWGQGTQVTVSS |  |  |  |  |  |  |  |  | TcdA IC50, TcdA-induced Vero cell cytotoxicity (WST-1) [1]: ~70 nM; maximal TcdA inhibition level [1]: ~60% |
| A26.8 VHH mutant Q106F (VHH, not shown: small tags and cut ends) VHH: QVKLEESGGGLVQAGGSLRLSCAASERTFSRYPVAWFRQAPGAEREFVAVISSTGTSTYYADSVKGRFTISRDNAKVTVYLQMNNLKREDTAVYFCAVNSQRTRLFDPNEYDYWGQGTQVTVSS | 3.28 | 0.004 | 5130 |  |  |  |  |  | fold decrease in affinity relative to parent A26.8 VHH [3]: 30 to 300 fold |
| A26.8-T103K (VHH, not shown: small tags and cut ends) VHH: QVKLEESGGGLVQAGGSLRLSCAASERTFSRYPVAWFRQAPGAEREFVAVISSTGTSTYYADSVKGRFTISRDNAKVTVYLQMNNLKREDTAVYFCAVNSQRKRLQDPNEYDYWGQGTQVTVSS | -0.48 | 2.3 |  | > 2 | > 2 | 8.29 | 0.0199 | 2.47e+06 |  |
| A26.8-Q101K (VHH, not shown: small tags and cut ends) VHH: QVKLEESGGGLVQAGGSLRLSCAASERTFSRYPVAWFRQAPGAEREFVAVISSTGTSTYYADSVKGRFTISRDNAKVTVYLQMNNLKREDTAVYFCAVNSKRTRLQDPNEYDYWGQGTQVTVSS | -0.52 | 2.5 |  | > 2 | > 2 | 7.63 | 0.0198 | 2.7e+06 |  |
| A26.8 VHH mutant Q106Y (VHH, not shown: small tags and cut ends) VHH: QVKLEESGGGLVQAGGSLRLSCAASERTFSRYPVAWFRQAPGAEREFVAVISSTGTSTYYADSVKGRFTISRDNAKVTVYLQMNNLKREDTAVYFCAVNSQRTRLYDPNEYDYWGQGTQVTVSS | 2.82 | 0.008 | 2320 |  |  |  |  |  |  |
| A26.8 VHH mutant Q106W (VHH, not shown: small tags and cut ends) VHH: QVKLEESGGGLVQAGGSLRLSCAASERTFSRYPVAWFRQAPGAEREFVAVISSTGTSTYYADSVKGRFTISRDNAKVTVYLQMNNLKREDTAVYFCAVNSQRTRLWDPNEYDYWGQGTQVTVSS | 2.55 | 0.01 | 1480 |  |  |  |  |  |  |
| A26.8-T103R (VHH, not shown: small tags and cut ends) VHH: QVKLEESGGGLVQAGGSLRLSCAASERTFSRYPVAWFRQAPGAEREFVAVISSTGTSTYYADSVKGRFTISRDNAKVTVYLQMNNLKREDTAVYFCAVNSQRRRLQDPNEYDYWGQGTQVTVSS | -0.73 | 3.5 |  | > 2 | ~3 | 5.32 | 0.014 | 2.7e+06 | fold improvement in koff relative to parent [3]: ~2.5 fold |
| A26.8-T56R (VHH, not shown: small tags and cut ends) VHH: QVKLEESGGGLVQAGGSLRLSCAASERTFSRYPVAWFRQAPGAEREFVAVISSTGRSTYYADSVKGRFTISRDNAKVTVYLQMNNLKREDTAVYFCAVNSQRTRLQDPNEYDYWGQGTQVTVSS | -0.65 | 3 |  | > 2 | ~3 | 6.16 | 0.0269 | 4.75e+06 | fold improvement in kon relative to parent [3]: ~2.5 fold |
| A26.8-T56R, Q101K, T103R (VHH, not shown: small tags and cut ends, also called lead triple mutant; best triple mutant) VHH: QVKLEESGGGLVQAGGSLRLSCAASERTFSRYPVAWFRQAPGAEREFVAVISSTGRSTYYADSVKGRFTISRDNAKVTVYLQMNNLKREDTAVYFCAVNSKRRRLQDPNEYDYWGQGTQVTVSS | -1.31 | 9.4 |  |  |  | 1.98 | 0.0241 | 1.23e+07 | fold change in kon relative to original A26.8 [3]: ~7 fold; fold improvement of KD relative to original A26.8 [3]: 10 fold; TcdA IC50, TcdA-induced Vero cell cytotoxicity (WST-1) [1]: ~12 nM; fold increase in neutralization potency relative to parent A26.8 VHH [1]: 6 fold; maximal TcdA inhibition level [1]: ~70% |
| A26.8 VHH mutant S53R (VHH, not shown: small tags and cut ends) VHH: QVKLEESGGGLVQAGGSLRLSCAASERTFSRYPVAWFRQAPGAEREFVAVISRTGTSTYYADSVKGRFTISRDNAKVTVYLQMNNLKREDTAVYFCAVNSQRTRLQDPNEYDYWGQGTQVTVSS | 1.45 | 0.08 | 224 |  |  |  |  |  | fold decrease in affinity relative to parent A26.8 VHH [3]: ~10 fold |
| A26.8-T56R, T103R (VHH, not shown: small tags and cut ends, also called lead double mutant; best double mutant) VHH: QVKLEESGGGLVQAGGSLRLSCAASERTFSRYPVAWFRQAPGAEREFVAVISSTGRSTYYADSVKGRFTISRDNAKVTVYLQMNNLKREDTAVYFCAVNSQRRRLQDPNEYDYWGQGTQVTVSS | -1.22 | 8.1 |  |  |  | 2.32 | 0.0193 | 8.33e+06 | fold affinity improvement relative to parent A26.8 VHH [3]: 8 fold; fold increase in kon relative to parent A26.8 VHH [3]: > 6 fold; TcdA IC50, TcdA-induced Vero cell cytotoxicity (WST-1) [1]: ~12 nM; fold increase in neutralization potency relative to parent A26.8 VHH [1]: 6 fold; maximal TcdA inhibition level [1]: ~70% |
| A26.8 VHH mutant Q106L (VHH, not shown: small tags and cut ends) VHH: QVKLEESGGGLVQAGGSLRLSCAASERTFSRYPVAWFRQAPGAEREFVAVISSTGTSTYYADSVKGRFTISRDNAKVTVYLQMNNLKREDTAVYFCAVNSQRTRLLDPNEYDYWGQGTQVTVSS | 2.04 | 0.03 | 612 |  |  |  |  |  | fold decrease in affinity relative to parent A26.8 VHH [3]: 30 to 300 fold |
